Kd data for 2 substances are collected here from PMC4617317.

Usually Kd stands for the constant that tells how readily two partners part at equilibrium. The low end stands for a tighter complex, the high end for a looser complex.

In data set [1] the test system is VpsT (Vibrio cholerae C7258?). As to the kind of experiment: EMSA.
Data set [2] concerns H-NS (Vibrio cholerae C7258?). The data set is described as follows: EMSA. (In EMSA bound probe runs differently from free probe, usually more slowly.)

Consider vpsL promoter -262 to -185, for which the figures for the Kd in data set [1] and in data set [2] were 35.4 nM and 204 nM, respectively.
The like results for vpsA promoter -223 to -139 were, in that order, 42.6 nM and 138 nM.
